According to US20190022241A1 (AbbVie / Abbott, published 2019):

T1: SEZ6 N1 (amino acids 1-70) on yeast (human, UniProt Q53EL9 20-89)
T1 construct: yeast display
T1 sequence: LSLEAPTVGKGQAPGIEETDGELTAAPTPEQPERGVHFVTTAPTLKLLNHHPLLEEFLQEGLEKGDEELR


How the values were obtained:
[1] = target: T2, SEZ6 Sushi Domain 4 (amino acids 750-813) on yeast (human, UniProt Q53EL9 769-832); experiment: yeast display, flow cytometry;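 note: antibody binding to individual SEZ6 domains displayed on yeast, measured by flow cytometry, antibody at 50 nM purified or hybridoma supernatant diluted 1:2, 90 min on ice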
T2 construct: yeast display

[2] = target: T1, SEZ6 N1 (amino acids 1-70) on yeast; experiment: yeast display, flow cytometry;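 note: antibody binding to individual SEZ6 domains displayed on yeast, measured by flow cytometry, antibody at 50 nM purified or hybridoma supernatant diluted 1:2, 90 min on ice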

| Binder | binding result [1] | binding result [2] |
| --- | --- | --- |
| SC17.156 (antibody, V domains shown, murine mAb) VH: QVTLKESGPGILQPSQTLSLTCSFSGFSLSTSGMGVSWIRKTSGKGLEWLAHIFWDDDKWYNPSLKSRLTISKATSSNQVFLILTSVDTADTATYYCATFYGLYFAYWGQGTTLTVSS VL: DVVMTQSPLSLPVSLGDQASISCRSSQSIVHSNGNTYLEWYLQKPGQSPKLLIYKVSNRFSGVPDRFSGSGSGTDFTLKISRVEAEDLGVYYCFQGSHVPPTFGGGTKLEIK | binds |  |
| SC17.114 (antibody, V domains shown, murine mAb) VH: EVQLQQSGPEMVKPGASVKISCKASGYTFTDYYMHWVKQSHGKSLEWIGRVNTNNGGTSYDQKFEGKATLTVDKSSSTAYMELNSLTSEDSAVYYCVIPAWFAYWGQGTLVTVSA VL: DVVMTQSPLSLPVSLGDQASISCRSSQSLVHSNGNTYLHWYLQKPGQSPKLLIYKVSSRFSGVPDRFSGSGSGTDFTLKISRVEAEDLGVYFCSQSTHVPFTFGSGTKLEIK |  | binds |
| SC17.9 (antibody, V domains shown, murine mAb) VH: QVQLQQPGAEIVRPGASVKLSCKASGYTFTDYWMNWVKQRPGQGLEWIGAIDPSDSYTSYNPKFKGKATLTVDTSSSSAYMQLSSLTSEDSAVYFCARRGTPGKPLVYWGQGTLVTVSA VL: DIVMSQSPSSLAVSVGEKVTMSCKSSQSLLYSSNQKNYLAWYQQKPGQSPKLLIYWASTRESGVPDRFTGSGSGTDFTLTISSVKAEDLAVYFCQQYYNYPYTFGGGTKLK |  | binds |
| SC17.56 (antibody, V domains shown, murine mAb) VL: DIVMSQSPSSLAVSVGEKVTMSCKSSQSLLYSSNQKNYLAWYQQKPGQSPKLLIYWASTRESGVPDRFTGSGSGTDFTLTISSVKAEDLAVYFCQQYYNYPYTFGGGTKLEIK V domain: QIQLVQSGPELKKPGETVKISCKASGYTFTNYGMNWVKQAPGKGLKWMAWINTYTGEPTYADDFKGRFAFSLETSASTASLQIINLKNEDTATYFCARIGDSSPSDYWGQGTTLTV |  | binds |
| SC17.93 (antibody, V domains shown, murine mAb) VH: QVQLQQPGAELVKPGASVMLSCKASGYTFTSYWVHWVKQRPGQGLEWIGVINPRNGRNNYNEKFKTKATLTVDKSSSTAYMQLSSPTSEDSAVYYCAREDYDGGDYAMDYWGQGTSVTVSS VL: DIVMSQSPSSLAVSVGEKVTMTCKSSQSLLYSSNQKNYLAWYQQKPGQSPKLLIYWASTRESGVPDRFIGSGSGTDFTLTISSVKAEDLAIYYCQQYYRYPLTFGAGTKLELK | binds |  |
| SC17.81 (antibody, V domains shown, murine mAb) VH: EVQLQQSGAELVKPGASVKLSCTASGFNINDTYYHWLKQRPEQGLEWIGRIDPANVNTKYDPKFQGKATLTADTSSNTAYLQLSSLTSEDTAVYYCGRGNAYWGQGTLVTVSA VL: DIVMSQSPSSLTVSVGEKVTLSCKSSQSLLYSTNQKIYLAWYQQKPGQSPKLLIYWASTRESGVPDRFTGSGSGTDFTLAISNVKAEDLAVYYCQQYYSYPYTFGGGTKLEIK |  | binds |
| SC17.121 (antibody, V domains shown, murine mAb) VH: EVQLQQSGPELMKPGASVKMSCKASGYTFTDHNIHWVKQHQGKSLEWIGEINPNTGGTGYNQKFQGKATMTVDKSSSTAYMELRSLTSEDSAVYYCVRGLYFFDYWGQGTTLTVSS VL: QIVLTQSPAIMSASPGEKVTMTCSASSSVSYMHWYQQKSGTSPKRWIYDTSKLASGVPARFSGSGSGTSYSLTISSMETEDAATYYCQQWSNTPPTFGSVTKLEIK | binds |  |
| SC17.102 (antibody, V domains shown, murine mAb) VH: EVQLQQSGPELMKPGASVKMSCKASGDTFTDYNIHWVKQNQGKSLEWIGEVNPNIGGIGYNQKFKGKATLTVDKSSSTAYMELRSLTSEDSAVYYCAMGRWYFDVWGAGTTVTVSS VL: QIVLTQSPAIMSASPGEKVTMTCSASSSVSYMHWYQQKSGTSPKRWIYDTSKLASGVPPRFSGRGSGTSYSLTISSMEAEDAATYYCQHWSSNPPTFGAGTKLEMK | binds |  |
| SC17.191 (antibody, V domains shown, murine mAb) VH: EVQLQQSGPELMKPGASVKMSCKASGYTFTDYNMHWVKQNQGKSLEWIGEINPNTGGTGYNQKFKDKATLTVDKSSSTAYMELRSLTSEDSAVYYCARIPSLRRYYFDYWGQGTTLTVSS VL: QIVLTQSPAIMSASPGEKVTMTCSASSSVSYMHWYQQKSGTSPKRWIYDTSKLASGVPARFTGSGSGTSYSLTISSMEAEDAATYYCQQWSSSPPTFGAGTKLELK | binds |  |
| SC17.151 (antibody, V domains shown, murine mAb) VH: EVQLQQSGTVLARPGASVKMSCKASGYTFTSYWMHWVKQRPGQGLEWIGAIYPGKNDTTYNQKFKGKAKLTAVTSASTLYMELSSLTNEDSAVYYCTRSGKGYFAYWGQGTLVTVSA VL: DIVLTQFPASLAVSLGQRATIPCRASESVDSYGNSFMHWFQQKPGQPPKLLIYRASNLESEIPARFSGSGSGTDFTLTINPVEADDVATYYCQQSHEDPYTFGGGTKMEIK |  | binds |
| SC17.120 (antibody, V domains shown, murine mAb) VH: EVQLEQSGTVLARPGASVKMSCKASGYTFTSYWMHWVKQRPGQGLEWIGAFYPGNSGTYYNQKFKDKAKLTAVTSASTAYMELSSLTNEDSAVYYCSRSGSGRFAYWGQGTLVTVSA VL: DIVLTQSPASLAVSLGQRATISCRASESVDSYGNSFMHWYQQKPGQPPKVLIYRASNLESGIPARFSGSGSRTDFTLTINPVEDEDVATYYCQQSNEDPYTFGGGTKLEIK |  | binds |
| SC17.199 (antibody, V domains shown, murine mAb) VH: EVQLQQSGTVLARPGASVRMSCKASGYTFTSYWMHWVKQRPGQGLEWIGAIYPGNSDTSYNHKFKGKAKLTAVTSASTAYMELSSLTNEDSAVYYCTRSGTGWFAYWGQGTLVTVS VL: DIVLTQSPASLAVSLGQRATISCRASESVDSYGNSFMHWYQQKPGQPPKPLIYRASNLESGIPARFSGSGSRTDFTLTINPVEADDVATYYCQQSNEDPYTFGGGTKLEIK |  | binds |
| SC17.193 (antibody, V domains shown, murine mAb) VH: QVTLKESGPGILQPSQTLSLTCSFSGFSLITYGIGVGWIRQPSGKGLEWLAHIWWNDNKYYNTALKSRLTISKDTSNNQVFLKIANVDTADTATYYCARMVYYDYDGGFAYWGQGTLVTVSA VL: DLVLTQSPASLAVSLGQRATISCRASESVSTSGYSYMHWYQQKPGQPPKLLIYLASNLESGVPARFSGSGSGTDFTLNIHPVEEEDATTYYCQHSRELPYTFGGGTKLEIK | binds |  |
